± gives the standard deviation.

The data set in a line: protein stability index of a GFP-peptide fusion (GPS, HEK-293T) (PSI 1-6); higher = more stable.
Where [1] appears, read: treatment: DMSO, c terminus: a fixed tail appended.
Setting [2] is: treatment: MLN4924 1 uM, 8 h, c terminus: a fixed tail appended.
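Note: 24-mer peptide tiles fused after GFP, lentivirally expressed, FACS-sorted into six equal bins by GFP/DsRed ratio, decoded by Illumina sequencing, PSI is the read-weighted mean bin number.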

On to GNFDWVGNDFTQNAGTGLVINQAD [PLD5], for which the protein stability index reads like this: under setting [1], 4.7 ± 0.69; under setting [2], 4.47 ± 0.27.
In the same order, the values of GNQLISNNIKFKKSSILTRAGEQR [CLCN6] are 3.78 ± 0.13 and 4.06 ± 0.44.
In the same order, the values of GQQDLFRVLKAYTLYRPEEGYCQA [TBC1D10A] are 2.03 ± 0.37 and 2.16 ± 0.31.
In turn, GQQDQVKLHDFFSYLMDHFIPSSH [PPEF2] gave a protein stability index under setting [1] of 2.81 ± 0.57 and a protein stability index under setting [2] of 2.89 ± 0.71.
As for GQRGAQGAGRRRRAGGPPRPMSEP [SMAD6], the protein stability index came out at 4.96 ± 0.21 under setting [1] and 5.08 ± 0.42 under setting [2].
Consider GRDELGGGRRPGTSPALLQGTAEE [CDKN1A], for which the protein stability index under setting [1] came out at 5.4 ± 0.34 and the protein stability index under setting [2] is 5.41 ± 0.24.
In the same order, the values of GSANDYKDTLGKGSSLSAPSKKTS [KRT71] are 5.33 ± 0.22 and 5.3 ± 0.22.
Consider GSDYVNANYIDGYRKQNAYIATQG [PTPRD], for which the protein stability index was 3.51 ± 1.2 under setting [1] and 3.46 ± 0.28 under setting [2].
For GSINLLESPQLATLAEDVTAALAK [MAP2], in that order: 4.12 ± 0.066 and 4.05 ± 0.27.
Regarding GSLCAIAGVLTIALPVPVIVSNFN [KCNA4], the protein stability index stood at 3.33 ± 0.42 under setting [1] and 3.13 ± 0.36 under setting [2].
For GSPVNQQPKKNNVMARTRLVVPNK [FAM219A], in that order: 4.17 ± 0.1 and 4.33 ± 0.31.
In the same order, the values of GSTMLIEAAKGGHTSVVCYLLDYP [ANKRD17] are 2.59 ± 0.38 and 2.55 ± 0.56.
As to GTTPQISPSTLIGSLRTLELGSES [HDAC6], under setting [1], the protein stability index stood at 4.52 ± 0.27.
The sequence GVAGGLNRNQGLNRLMLAVRDMMA [TCF25] had a protein stability index under setting [1] of 3.12 ± 0.38 and a protein stability index under setting [2] of 3.02 ± 0.36.
For GVCIRRCTVLRDARIRSHSWLESC [GMPPB], the protein stability index runs as follows: under setting [1], 2.31 ± 0.35; under setting [2], 2.15 ± 0.12.
In the same order, the values of GVKRKADTTTPTTSAITASRSESP [BRD3] are 5.22 ± 0.15 and 5.19 ± 0.16.
In the same order, the values of GVLHKHQRALHKYSLMKRQMMSAT [SNX8] are 2.4 ± 0.18 and 2.58 ± 0.24.
For GWGEVMLMADKVLRWERAWFPPAI [ARL6IP1], in that order: 2.87 ± 0.48 and 3.04 ± 0.78.
As for GYEVAAAQGPNKPGYLVGRNNANG [CPN1], the protein stability index reads like this: under setting [1], 4.2 ± 0.14; under setting [2], 4.32 ± 0.21.
In the same order, the values of GYPLPKLDMNFSLENREEPWVKEL [ZNF449] are 3.53 ± 0.12 and 3.7 ± 0.2.
For HARYRVIHFIAVAVCLLGVGTMVG [SLC35F2], in that order: 2.42 ± 0.42 and 2.28 ± 0.15.
Take HDGHLYLGSFRSPFLCRLSLQAV [APMAP]: the protein stability index runs as follows: (treatment: DMSO, c terminus: native) 2.82 ± 0.33; (treatment: MLN4924 1 uM, 8 h, c terminus: native) 3.31 ± 0.55.
Regarding HDGKNQPSKTYPAFLEPDETFIVP [SPSB1], the protein stability index reads like this: under setting [1], 4.28 ± 0.19; under setting [2], 4.25 ± 0.39.
In the same order, the values of HGGSLLGKKYNWSCDDLMGGGGLH [GFOD1] are 2.73 ± 0.28 and 2.95 ± 0.27.
For HHWDHARGNPELARLRPGLAVLGA [HAGHL], in that order: 3.1 ± 0.34 and 3.08 ± 0.45.
In the same order, the values of HICTNYNSVCSKFRKEIKSKSADN [RHOBTB1] are 3.37 ± 0.21 and 3.54 ± 0.15.
For the sequence HIPSQEVPGTQVGQGGKLWDPSVQ [ZNF263], the protein stability index is, setting by setting: under setting [1], 4.35 ± 0.12; under setting [2], 4.44 ± 0.24.
In the same order, the values of HISNQKMPTGPPEDRLSLKFLPSS [DRICH1] are 3.21 ± 0.14 and 3.44 ± 0.12.
In the same order, the values of HISSCKLGPQVSLDPMKNVTCENG [LOXL2] are 4.15 ± 0.39 and 4.14 ± 0.49.
In the same order, the values of HISTFINELDSGFRLLNLKNDSLR [TSN] are 2.23 ± 0.13 and 2.1 ± 0.25.
Regarding HLLIPELGACVAPGGNLIVELARY [DNAAF3], the protein stability index reads like this: under setting [1], 2.28 ± 0.085; under setting [2], 2.25 ± 0.24.
In the same order, the values of HMNRLQSQRAMLLQGTESLNRATQ [VTI1B] are 4.12 ± 0.12 and 3.895 ± 0.03.
For IAANLENKATNTDHLTTVLYLQLA [C8orf76], in that order: 2.36 ± 0.28 and 2.17 ± 0.25.
For IARVHGTFGAAACSIGFAVRYLNA [POP5], in that order: 2.22 ± 0.26 and 2.25 ± 0.56.
As for IDKFGFIVGSQGAEGALEEVPLEV [TBC1D10A], the protein stability index amounted to 4.32 ± 0.16 under setting [1] and 4.42 ± 0.34 under setting [2].
For IDSRARRNLGSINTELQDVQRIMV [SEC22B], in that order: 2.8 ± 0.28 and 2.87 ± 0.29.
As for IEKYLRRQLTKPRPVILDPADPTG [OAS1], the protein stability index turned out to be 3.09 ± 0.2 under setting [1] and 3.25 ± 0.24 under setting [2].
Consider IERLRSLSPKIMQEAFLVQEVVEL [TBC1D10A], for which the protein stability index by setting is: under setting [1], 2.08 ± 0.36; under setting [2], 2.09 ± 0.29.
In the same order, the values of IETIKIIETEDQIDKKPVSEKTDE [MIA2] are 5.02 ± 0.39 and 4.7 ± 0.94.
For IFDDNFIEERKQGLEQFINKVAGH [SNX3], in that order: 3.03 ± 0.39 and 3.32 ± 0.44.
Consider IGDTSVSYKYTSRYVLKAGQTVTI [LMNB1], for which the protein stability index by setting is: under setting [1], 2.49 ± 0.73; under setting [2], 2.29 ± 0.5.
As for IGEGMTKYDYLMTLHGVVNESTVC [TENT5D], the protein stability index worked out at 2.53 ± 0.19 under setting [1] and 2.33 ± 0.19 under setting [2].
Regarding IGGAAPSLGALDLLGPATGCLLDD [SERTAD1], the protein stability index worked out at 4.28 ± 0.19 under setting [1] and 4.17 ± 0.2 under setting [2].
As to IIPRTVIDGLDLLKKEHPGARDGI [SMG5], the protein stability index under setting [1] is 3.2 ± 0.31 and the protein stability index under setting [2] amounted to 3.39 ± 0.23.
In turn, IIPTPDEEEKILRVKLEEDPDGEE [ZNF24] showed a protein stability index under setting [1] of 5.44 ± 0.4 and a protein stability index under setting [2] of 5.52 ± 0.57.
For IITQLEDSRRVTKENSHQVKEELS [TRIM63], in that order: 4.28 ± 0.35 and 4.39 ± 0.26.
In the same order, the values of IKTTLRELLVYIVFLVDICLLTYG [PKD2L1] are 2.98 ± 0.45 and 2.93 ± 0.53.
For ILEHAHRGEQTTSQVSWEQDLKLF [FCHSD1], in that order: 3.43 ± 0.44 and 3.53 ± 0.68.
As to ILHMNGSQSSTYRGTYEQDGRFEK [ZNF396], the protein stability index by setting is: under setting [1], 2.86 ± 0.41; under setting [2], 3.36 ± 0.14.
In the same order, the values of ILRKLPQQREKLSLIRKHAQTFIA [CCND2] are 2.3 ± 0.14 and 2.42 ± 0.41.
In the same order, the values of INRVSTCYSEEITVCGDLHGQLDD [PPEF2] are 4.24 ± 0.33 and 3.96 ± 0.27.
For INVSKGINHLLKSPFSVHPKTGRI [PRIM1], in that order: 2.62 ± 0.5 and 2.65 ± 0.37.
Take IRCRHPPPGSHLLYAKMIQKLADL [VDR]: the protein stability index turned out to be 2.37 ± 0.33 under setting [1] and 2.23 ± 0.13 under setting [2].
